Assay results reported in article PMC4108476.

Target: T1, [2Fe-2S]-IscR wild type (Escherichia coli, UniProt P0AGK8 1-162)
T1 sequence: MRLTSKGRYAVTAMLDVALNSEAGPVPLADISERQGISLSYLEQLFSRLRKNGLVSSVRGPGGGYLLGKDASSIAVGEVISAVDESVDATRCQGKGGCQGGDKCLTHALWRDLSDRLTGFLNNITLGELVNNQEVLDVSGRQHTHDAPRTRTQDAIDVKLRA
Assay: fluorescence anisotropy

B1: PiscR site B 30-mer (dsDNA)
DNA 1: AAATAGTTGACCAATTTACTCGGGAATGTC
DNA 2: GACATTCCCGAGTAAATTGGTCAACTATTT
- Kd: 112 ± 2 nM
